According to the nanobody polyreactivity screen of Harvey et al. (2022):

Experiment: yeast display, Sf9 membrane polyspecificity reagent, FACS + sequencing; frameworks hold sequencing errors
Outline: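 Galactose induction of a Saccharomyces cerevisiae BJ5465 synthetic nanobody display library ran 36–48 hours. The cells were then stained for 1 hour at 4 °C with 10% biotinylated, detergent-solubilized Sf9 membrane reagent, pulled down on streptavidin microbeads and FACS-sorted into low and high (top ~1%) gates on expression and reagent-binding fluorescence. Labels for polyreactivity follow the gate of origin.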

Sequence | polyreactivity (PSR sort gate)
QVQLVDSGGGLVQAGGRLLLSCAASGRTFRKYTMGWYREAPGKERELVAAISSRGGSTYYADSVKGRFTISRDNAKYTVYLQMNSMKPEDTAVYYCDTDYITPSSEGDYWGQGTQVTVSS | high polyreactivity
QVQLVESGGGLVQAGGSLRLSCAASGIIFYIYAMGWYRQAPGKERELVAAITSSGGSTNYADSVKGRFTISRDNAKNTVYLQMNSLKPEDTAVYYCAAAYRPWQEFYWGQGTQVTVSS | high polyreactivity
QVQLVESGGGLVQAGGSLRLSSAASGSIFPANALGWYRQAPGKERELVAASTANGGSTYYADSVKGRFTISRDNAKNTVYLQMNSLKPEDTAVYYCNAYFVSGHAGGYDYWGQGTQETVSS | high polyreactivity
QVQLVESGGGLVQAGGRLRLSCAASGSIFNANAMGWYRHAPGKEREMVAGIRSGSSTNYADSVKGRFTISRDNAKNTVYLQMNSLKPEDTAVYYCATEGYWVYGFDDEYWGQGTQVTVSS | low polyreactivity
QVQLVESGGGLVQAGGSLRLSCAASGFTFDKYAMGRYRQAPGKERDLDAGITRSGSTYYADSVKGRFTISRDNAKNTVYLQMNSLKPEDTAVYYCKARPRGSYNRPNYPRYYYCGQGTQVTVSS | high polyreactivity
QVHLVESGGGLVQAGGSLRLSCAASGRIFPGYAMGWYRQAPGKERELVAAISWIGGDTYYADSVKGRFTISRDNAKNTVYLQMNSLIPEDTAVYYCAARYGRHRVSWYATWRYGYWGQGTQVTVSS | low polyreactivity
QVQLVESGGGLVQAGGSLRLSCAASGSIFVVNAMGWYRQAPGKERELVAAISDSGDRTYYADSVKGRFTISRDNAKNTVYLQMNSLKPEDTAVYYCAADSIQTTAIYDYWGQGTQVTVSS | low polyreactivity
QVQLVESGGGLVQAGGSLRLSCAASGNTFGNYGMGWYRQAPGKEREFVAAITSRGTSTYYADSVKGRFTISRDNAKNTVYLQMNSLKPEDTAVYYCNARPRYKYPRYDYWGQGTQVTVSS | high polyreactivity
QVQLVESGGGLVQAGGSLRLSCAASGFTFDYYTMGWYRQAPGKEREFVAAITWNGGTTNYADSVKGRCTISRDNAKNTVYLQMNSLKPEDTALYYCADTAYWYFSNDSGRSYDYWGQGTQVTVSS | low polyreactivity
QVQHVESGGGLVQAGGSLRLSCAASGRIFGSYAMVGYIQAPGKETELDAAIRWSGGNTYYADSVKGRFTITRDNAKNTVYFQMNSLKPEDTAVYYCNARTARSYSKTSYRFSSYNYWGQGTQVTVSS | high polyreactivity
QVQLVESGGGLVQAGGSLRLSCAASGRTFVYNAMGWYRQAPGKERELVAAITSGGRTYYADSVKGRFTISRDNAKNTVYLQMNSLKPEDTAVYYCNAGVGARESDYWGQCTQVTVSS | low polyreactivity
QVQLVESGGGLVQAGGSLRLSCAASGSILVTYAMGWYRQAPGKERELVAAISRGGRTYYADSVKGRFTISRDNAKNTVYLQMNSLKPEDTAVYYCNADRVTFSWPVNYYWVDYWGQGTQVTVSS | high polyreactivity
QVTLVESGGGLVQAGGSLRLSCAASGFTFYIYAMGWYRQAPGKERELVAAISSSGTRTYYADSVKGRFTISRDHAKNTVYLQMNSLKPEDTAVYYCAAALGWYSAFGYWGQGTQVTVSS | high polyreactivity
QVQLVESGGGLVQAGGSLRLSCAASGLILKYYAMGWYRQAPGKEREFVAAITRRGGITYYADSVKGRFTISRDNAKNTVYLQMNSLKPEDTAVYYCAADPKLGSLAYWRYSYPLYDYWGQGTQVTVSS | low polyreactivity
QDHLVESGGGLVQAGGSLRLICAASGSTFTQYTMGWYRQAPGKERELVAAISSGGGRTYYADSVKGRFTISRDNAKNTVYLQMYSLKPEDTAFYYCAADYQNSRRGRGNSQYYYWGQGTQVTVSS | low polyreactivity
QVQLVESGGGLVQAGGSLRLSCAASGSIFAQYAMGWYRQAPGKERELVATISSVGSTNYADSVKGRFTISRDNAKNTVYLQMNSLKPEDTAVYYCAARYPVGRSPRAYEYWGQGTQVTVSS | low polyreactivity
QVQLVESGGGLVQAGGSLRLSCAASGRIFFTNTMGWYRQAPGKERELVAAITRSGTRTYYADSVKGRFTISRDNAKNTVYLQMNSLKPEDTAVYYCNAVVRQLVRYDYWGQGTQVTVSS | high polyreactivity
QVHLVESGGGLVQAGGSLRLSCAATGYIFDSYAMGWYRPAPGKEREFVAAISGSDGSTYYADSVKGRFTISRDNAKNTVYLQMNSLKPEDTAVYYCAADPYYGEMEYWGQGTQVTVSS | low polyreactivity
QVQLVESGGGLVQAGGSLRLSCAASGLTSEGNAMGWYRQAPGKERELVAAIDYRGGSTYYADSVKGRFTISRDNAKNSVYLQMNSLKPEDTAVYYCAADYPRGYIDDGDYWGQGTQVTVSS | low polyreactivity
QVQLVESGGGLVQAGGSLRLSCAASGSTFAYNDMGWYRQAPWKERDLVADIRSGGNTNYADSVKGRFTISRDNAKNTVYLQMNILKPEDTAVYYCASDGYRIDVYHPDYRYDYWGQGTQVTVSS | low polyreactivity
QVQLVESGGRLVQAGGRHRLSGAASRNIFDRYALGWNLQAPGKESDLVAGITWSGGSTYYADSVKGRFTISRDNAKNTVYLHMNSLKPEDTAVYYCGQANYYWGQGTQVTVSS | low polyreactivity
QVQLVESGGGLVQAGGSLRLSCAASGITFVQYAMGWYRQAPGKERELVAAIRRGGSTSYADSVKGRFTISRDNAKNTVYLQMNSLKPEDTAVYYCARRYVWPITPLDVEYWGQGTQVTVSS | low polyreactivity

Sequence | polyreactivity (PSR sort gate)
QLQLVESGGGLVQAGGSLRLSCAASGSTFYAYAMGWNRPAPGKERELVAAISRGGNTYYADSVQGRFTISRDNAKNTVYLQMNSRKPEDTAVYYCAARYARGRSPLQYGYWGQGTQVTVSS | high polyreactivity
HVQLVESGGGLVQAGGSLRLSCAASGRIYWANAKGRYRQAPGKERELVAAISYSGGTYYADSVKGGFTISRDNAKNTVYLQMNSLKPADTAVYFCAAVDRRDGTKRWGFDYWGQGTQVTVSS | high polyreactivity
QVQLVESGGGLVQAVGSLRLSCAASGFIFSYYAMGWYRQAPGKERELVAAISRSGSITYYADSVKGRFTISRDNAKNTVYLQMNRLKPEDTAVYYCAARYWRRGSSGRLNYWGQGTQVTVSS | high polyreactivity
QVQLVESGGGLVQAGGSLRLSCAASGSTFLNNAMGWSRQAPGEERELVAAISRRGGNTYYADSEKGRFTISRDNAKNTVSLHMNSLKPEDTAVYYCAADLVWTRYFGYAQDYYIEFDYWGQGTQVTVSS | high polyreactivity
QVQLVESGGGLVQAGGSLRLSCAASGRTFRYNAMGWYRQAPGKERELVASIRYSSASTYYADSVKGRFTISRDNAKNTVYLQMNSLKPVDTAVYYCAASWYPVFVGYDYWGQGTQVTVSS | high polyreactivity
QVQLVESGGGLVQAGGSLRLSCAASGITFSYNAMGWYRQAPGKERQLVAAITWSGDSTYYADSVKGRFTISRDNAKNTVYLQMNSLKREDTAVYYCNARYLRLRYPYTDEYNYWGQGTQVTVSS | low polyreactivity
QDQLVESGGGLVQAGGSLRLSCAASGRIFYTNAMGWYRQAPGKERQLVATISSTGSTNYADSVKGRFTISRDNAKNTVYLQMNSLKPEDTAVYYCATQVGWRTYSHRNRGYYYWGQGTQVTVSS | high polyreactivity
QVQLQESGGGLMQAGGNLRLSCAASGYISTHYYMHWYRQAPGKERELVARIDDGAITNYADSVKGRFTISRDNAKNTVYLLMNSLKPEDTAVYYCAVYSGDDYYHDFWGQGTKVTVSS | low polyreactivity
QFQLVESGGGLVQEGGSLRLSCASSGRTFVSNAMGWYRQAPGKERELVAAISRRSGSTYYADSVKGRFTISRDNAKNTVYLQMNSLKPEDTAVYYCGAVLTRYGYDYWGQGTQVTVSS | high polyreactivity
QVQLEESGGGLVQAGGSLRLSCAASGRTFYTNAMGWYRQAPGKERELVAAISGRGSTYYADSVKGRFTISRDNAKNTVYLQMNSLKPEDTAVYYCAALLPGRSSSDYWGQGTLVTVSS | high polyreactivity
QVQLQESGGGLVQAGGRLPMSFAASGNIFDADIMGWYRQAPGKERELVASITDGRRTNYADSVKGRYTTSRDSEKNTVYLQMNSLKPEDTAVYYCAAIAYPVVPTYFDYDSDYFHWGQGTQVTVSS | high polyreactivity
QVQLVESGGGLVQAGGRLRLSCAASGRTFIGYAMGWSRQAPGKERELVAAISSTGGSTYYADSVKGRFTISRDNAKNTVYLQMNSLKPEDTAVYYCATDADRPPRTPDISYVSNFDYWGQGTQVTVSS | low polyreactivity
QVQLVESGGGLVQAGGSLRLSCAASGSIFGGYAMGWSRQAPGNERELVASISISGGSTYYADSVKGRFTISRDNAKNTVYLQMNRLKPEDTAGYYCATDRTTTLNSPYGDPDRDDYWGQGTQVTVSS | low polyreactivity
QVQLVESGGGLVQAGGSLRLSCGATGSIFKTYAMGWYRQAPGKERELVAAISQRGGSTYYADSVKGRFTISRDNAKNTVYLQMNSLKPEDTAVYYCAARYAYQSYLYRFDYWGQGTQVTVSS | high polyreactivity
QVQLVESGGGLVQAGGSLRLSCAASGLTFKSYTMGWYRQAPGKERELVATISGSGTRTYYADSVKGRFTISRDNAKNTVYLQMNSLKPEDTAVYYCARVIWYNNYFRYSGYRSDYWGQGTQVTVSS | high polyreactivity
QVQLVESGGGLVQAGGSLRLSCAASGSTIPYYAMGWYRQAPGKERELVATISSSGGSTYYADSVKGRFTISRDNAKNTVYLQMKSLKPEDTAVYYCAARYQTSGFRYRYGYWGQGTQVTVSS | high polyreactivity
QVQLVESGGGLVQAGGSLRLSCAASGRIFYINDMGWYRQAHGKERELVAAISASGGSTYYADSVKGRFTISRDNAKNTVYLQMNSLKPEDTAVYYCAAVYFHPGYDLFDYWGQGTQVTVSS | low polyreactivity
QVQLVESGGGLVQAGGSLRLSCAASGSTFLYYAMGWSRQAPGKERELVAVISWSGVSTYYADSVKGRFTISRDNAKNSVYLQMNSLKPEDTAVYYCYTGYHYIRSYGYWGQGTQVTVSS | low polyreactivity
QVQLVESGGGLVQAGGSLRLSCAASGRIFGRNARGWYRQAPGKEREFVAAISGNGGSTYYADSVKGRFTISRDNAKNTVYLQMNSLKPEDTAVYYCATKYFSRMDYWGQGTQVTVSS | high polyreactivity
QVQLVESGGGLVQAGGSLRLSCAASGSIFPWYTMGWYRQAPGKERELVAAITSSGGGTYYADSVKGRFTISRDNAKNTVYLQINSLKPEDTAVYYCAAGLDWGPEYEYWGQGTQVTVSS | low polyreactivity
QVQLVESGGGLVQAGGSLRLSCAASGSTFGKNAMGWYRQAPGKERELVAAISTSGTRTFFADSVKGRFTISRDNAKNTVYLQMNSLKPEDTAFYYWNAGRSSRAYYYWGQGTQVTVSS | high polyreactivity
